The target of assay [1] is RRR-type mutant ZFA36-FokI-ND (ZFA36 zinc finger array, TGAAARA linker, FokI nuclease domain D483R/H537R) (UniProt P14870). The experiment in a line: cell-based or functional assay.
The target of assay [2] is RRR-type mutant ZFA36-ND1 (ZFA36 zinc finger array, TGAAARA linker, ND1 D489R/N543R) (Bacillus SGD-V-76). The experiment in a line: cell-based or functional assay.

Sequence of RRR-type mutant ZFA36-FokI-ND (ZFA36 zinc finger array, TGAAARA linker, FokI nuclease domain D483R/H537R) (P14870 other isoform, or with tags, fused parts or gaps D483R H537R D483R H537R): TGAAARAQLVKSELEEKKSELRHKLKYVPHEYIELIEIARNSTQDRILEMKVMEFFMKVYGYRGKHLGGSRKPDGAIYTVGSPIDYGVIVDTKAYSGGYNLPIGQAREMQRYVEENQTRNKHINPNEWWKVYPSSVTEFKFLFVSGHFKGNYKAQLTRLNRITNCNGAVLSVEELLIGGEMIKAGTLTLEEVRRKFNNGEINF

As to “DDD-type mutant ZFL1-FokI-ND (hPGRN_ZFL1 zinc finger array, TGAAARA linker, FokI nuclease domain R487D/N496D) (from UniProt P14870 384-579) (enzyme)”, the cleavage activity of the target sequence (ZFL1-ZFA36) on the reporter, SSA reporter assay, relative to ZFA36-FokI in assay [1] was 60%. The substance also had a cleavage activity of the reporter, SSA reporter assay, relative to the FokI-ND homodimer type in assay [2] of 60%.

In turn, “DDD-type mutant ZFL1-ND1 (hPGRN_ZFL1 zinc finger array, TGAAARA linker, ND1 R493D/N502D) (enzyme)” gave a cleavage activity of the reporter, SSA reporter assay in assay [1] of 80%. The cleavage activity of the target sequence (ZFL1-ZFA36) on the reporter, SSA reporter assay, relative to ZFA36-FokI in assay [2] came out at 1.6 times.

The record behind these values is patent publication US20210332339A1.
